According to the RNAGym collection of RNA variant scans (doi:10.7554/elife.90254):

B1: OR4K15 (parent)
chain: GUUAACGGUCAUAGGCCAUGGAAACUAGGAGCACCAUUUCGCUGCCAGUGAAGAAAUGAACAAAGAAAAUCUGGGCCAGGCAGGCAUCAAAAGAAAUAGUCUUGCGCUCAACCAGAAAGUCUGUAAUCAUUUUAAGGGUA

Variants of: B1
Assay: self-cleavage, relative activity (ratio to wild type); higher = more cleavage; in vitro, sequencing; the parent is a self-cleaving ribozyme

Row | Variant | self-cleavage
1 | GUUAACGGUCAUAGGCCAUGGAAACUAGGAGCACCAUUUCGCAGCCAGUGGAGAAAUGAACAAAGAAAAUCUGGGCCAGGCAGGCAUCAAAAGAAAUAGUCUUGCGCUCAACCAGAAAGUCUGUAAUCAUUUUAAGGGUA | 1.64
2 | GUUAACGGUCAUAGGCCAUGGAAACUAGGAGCACCAUUUCGCAGCCAGUGAAGAAAUGAACAAAGAAGAUCUGGGCCAGGCAGGCAUCAAAAGAAAUAGUCUUGCGCUCAACCAGAAAGUCUGUAAUCAUUUUAAGGGUA | 1.25
3 | GUUAACGGUCAUAGGCCAUGGAAACUAGGAGCACCAUUUCGUUGCCAGUGAAGAAAUGAACAAAGAAAAUCUGGGCCAGGCAGGCAUCAAAAGAAAUAGUCUUGCGCACAACCAGAAAGUCUGUAAUCAUUUUAAGGGUA | 0
4 | GUUAACGGUCAUAGGCCAUGGAAACUAGGAGCACCAUUUCGCAGCCAGUGAAGAAAUGAACAAAGAAAAUCUGGGCCAGGCAGGCAUCAAAAGAAAUAGUCUUGCGCUCAACCAGAAAGUCUGUAUUCAUUUUAAGGGUA | 1.41
5 | GUUAACGGUCAUAGGCCAUGGAAACUAGGAGCACCAUUUCGCAGCCAGUGAAGAAAUGAACAAAGAAAAUCUGGGCCAGGCAGGCAUCAAAAGAAAUAGUCUUGCGCUCAACCAGAAAGUCUGUAGUCAUUUUAAGGGUA | 1.25
6 | GUUAACGGUCAUAGGCCAUGGAAACUAGGAGCACCAUUUCGCAGCCAGUGAAGAAAUGAACAAAGAAAAUCUGGGCCAGGCAGGCUUCAAAAGAAAUAGUCUUGCGCUCAACCAGAAAGUCUGUAAUCAUUUUAAGGGUA | 1.7
7 | GUUAACGGUCAUAGGCCAUGGAAACUAGGAGCACCAUUUCGCAGCCAGUGAAGAAAUGAACAAAGAAAAUCUGGGCCAGGCAGGCAUCUAAAGAAAUAGUCUUGCGCUCAACCAGAAAGUCUGUAAUCAUUUUAAGGGUA | 1.74
8 | GUUAACGGUCAUAGGCCAUGGAAACUAGGAGCACCAUUUCGUUACCAGUGAAGAAAUGAACAAAGAAAAUCUGGGCCAGGCAGGCAUCAAAAGAAAUAGUCUUGCGCUCAACCAGAAAGUCUGUAAUCAUUUUAAGGGUA | 1.51
9 | GUUAACGGUCAUAGGCCAUGGAAACUAGGAGCACCAUUUCGCAGCCUGUGAAGAAAUGAACAAAGAAAAUCUGGGCCAGGCAGGCAUCAAAAGAAAUAGUCUUGCGCUCAACCAGAAAGUCUGUAAUCAUUUUAAGGGUA | 1.13
10 | GUUAACGGUCAUAGGCCAUGGAAACUAGGAGCACCAUUUCGCAGCCAGUGAAGAAAUGAGCAAAGAAAAUCUGGGCCAGGCAGGCAUCAAAAGAAAUAGUCUUGCGCUCAACCAGAAAGUCUGUAAUCAUUUUAAGGGUA | 1.52
11 | GUUAACGGUCAUAGGCCAUGGAAACUAGGAGCACCAUUUCGUUGCCAGUGAAGAAAUGAACAAAGAAAAUCUGGGCCAGGCAGGCAUCAAAAGAAAUAGUCUUGCGCUCAACCAGAAAGUCUGUAACCAUUUUAAGGGUA | 0.99
12 | GUUAACGGUCAUAGGCCAUGGAAACUAGGAGCACCAUUUCGCAGCCAGUGAAGAAAUGAACAAAGAAAAUCUGGGCCAGGCAGGCAUCAAAAGAAAUAGUCAUGCGCUCAACCAGAAAGUCUGUAAUCAUUUUAAGGGUA | 0.78
13 | GUUAACGGUCAUAGGCCAUGGAAACUAGGAGCACCAUUUCGCAGCCAGUGAAGAAAUGAACAAAGAAAAUCUGGGCCAGGCAGGCAUCAAAAGAAAUAGUCCUGCGCUCAACCAGAAAGUCUGUAAUCAUUUUAAGGGUA | 2.2
14 | GUUAACGGUCAUAGGCCAUGGAAACUAGGAGCACCAUUUCGCAGCCAGUGAAGAAAUGAACAAAGAAAAUCUGGGCCAGGCAGGCACCAAAAGAAAUAGUCUUGCGCUCAACCAGAAAGUCUGUAAUCAUUUUAAGGGUA | 1.55
15 | GUUAACGGUCAUAGGCCAUGGAAACUAGGAGCACCAUUUCGCAGCCAGUGAAGAAAUGAACAAAGAAAAUCUGGGCCAGGCAGGCAACAAAAGAAAUAGUCUUGCGCUCAACCAGAAAGUCUGUAAUCAUUUUAAGGGUA | 1.94
16 | GUUAACGGUCAUAGGCCAUGGAAACUAGGAGCACCAUUUCGCAGCCAGCGAAGAAAUGAACAAAGAAAAUCUGGGCCAGGCAGGCAUCAAAAGAAAUAGUCUUGCGCUCAACCAGAAAGUCUGUAAUCAUUUUAAGGGUA | 1.49
17 | GUUAACGGUCAUAGGCCAUGGAAACUAGGAGCACCAUUUCGCAGCCAGUGAAGAAAUGAACAAAGAAAAUCUGGGCCAGGCAGGCAUCAAAAGAAAUAGUCUUGCGCUCAACCAGAAAGUCUGUAAUCAUUUUAAGGGUA | 1.58
18 | GUUAACGGUCAUAGGCCAUGGAAACUAGGAGCACCAUUUCGUUGCCAGUGAAGAAAUGAACAAAGAAAAUCUGGGCCAGGCAGGCAUCAAAAGAAAUAGUCUUGCGCUCAACCAGAAAGUCUGUAAUCGUUUUAAGGGUA | 1.47
19 | GUUAACGGUCAUAGGCCAUGGAAACUAGGAGCACCAUUUCGCAGCCAGUGAAGAAAUGAACAAAGAAAAUCUGGGCCAGGCAGGCAUCAAAAGAAAUAGUCUUGCGCUCAACCAGAAAGUCUGUAAUCAUUUUAUGGGUA | 2.21
20 | GUUAACGGUCAUAGGCCAUGGAAACUAGGAGCACCAUUUCGCAGCCAGUGAAGAAAUGAACAAAGAAAAUCUGGGCCAGGCAGGCAUCAAAAGAAAUAGUCUUGCGCUCAACCAGAAAGUCUGUAAUCAUUUUAGGGGUA | 1.91
21 | GUUAACGGUCAUAGGCCAUGGAAACUAGGAGCACCAUUUCGCAGCCAGUGAAGAAAUGAACAAAGAAAAUCUGGGCCAGGCAGGCAUCAAAAGAAAUAGUCUUGCGCUCAACCAGAAAGUCUGUAAUCAUUUUACGGGUA | 1.29
